Laboratory results published in IntAct's records for PubMed 17380122.

B1: Regulator of G-protein signaling 12 (Mus musculus), Q8CGE9 (parent)
chain: MYRAGEPGKRQPGPAPPRVRSVEVARGRAGYGFTLSGQAPCVLSCVMRGSPADFVGLRAGDQILAINEINVKKASHEDVVKLIGKCSGVLHMVIAEGTSHVESCSSDEEGGLYEGKGWLRPKLDSKALGINRAERVVEEVQSGGIFNMIFESSSLCASGPEPLKLKQRSLSESAALRLDAGQAGLCAPHPSMLSKEDISKVINDDSVFTVGLDSHDDFGLDASILNVAMVVGYLGSIELPSTSSNLEHDSLQAIRGCMRRLRAEQKIHSLVTMKVMHDCVQLVTDRAGVVAEYPAEKLAFSAVCPDDRRFFGLVTMQTNDDGGLAQEDEGALRTSCHVFMVDPDLFHHKIHQGIARRFGFACTADPDTSGCLEFPASSLPVLQFISVLYRDMGELIEGVRARAFLDGDADAHQNNSTSSNSDSGIGNFNQEEKSNRVLVVDLGGGSSRHGQGSSPGWESGGGRGSQPWSAPWNGAFCHDSEAGSPLETSPNTDRFWDLTKHSGPVSHMEVPPATLRSSIPPSKRGAAGSSCGFNQRWLPVHVLQEWQCGHASDQESYTDSTDGWSSVNCGTLPPPMSKIPADRYRVEGSFAQAPLSTQKRDWSRKAFGMQNLFGPHRNVRKTKEDKKSSKLGRGVALAQTSQRTSARRSFGRSRRFSITRSLDDLESATVSDGELTGADLKDCISNNSLSSNASLPSVQSCRRLRERRVASWAVSFERLLQDPVGVRYFSDFLRKEFSEENILFWQACECFSHVPAHDKKELSYRAREIFSKFLCSKATTPVNIDSQAQLADDILNAPHPDMFKEQQLQIFNLMKFDSYTRFLKSQLYQECVLAEVEGRTLPDSQQVPSSPASKHSISSDHSNVSTPKKLSGKSKSGRSLNEDVGEEDSEKKRRGAFFSWSRSRSTGRSQKKKDHGDHAHDAPHANGGLCRRESQGSVSSAGSLDLSEACRTSALEKDKAAKHCCVHLPDGTSCVVAVKSGFSIKEILSGLCERHGINGAAVDLFLVGGDKPLVLHQDSSILATRDLRLEKRTLFRLDLVPINRSVGLKAKPTKPVTEVLRPVVAKYGLDLGSLLVRLSGEKEPLDLGAPISSLDGQRVILEERDPSRGKVSTDKQKGAPVKQNSAVNSSPRNHLAMGEERTLGKSNSIKIRGENGKSARDPRLSKREESIAKIGKKKYQKINLDEAEEFFELISKAQSNRADDQRGLLRKEDLVLPEFLRLPAGSSELALSSPPPVKGYSKRAVTGHGQEGAAQTEESYSDSPATSPASAQSPCSAYSPGSAHSPGSAHSTPGPPGTTQPGEKPTKPSCVSMVQEGTTQAWRRLSPEMEAGGIQTVEDEQVADLTLMGEGDISSPNSTLLPPPPTPQDTPGPPRPGTSRF

Variants of: B1
Details: with rash_rat Hras

effect of a mutation on the interaction | Variant
decreasing interaction | H995L

Variants of: B1
Details: with rasn_rat Nras

effect of a mutation on the interaction | Variant
decreasing interaction | H995L
